T1: serum resistance-associated protein (SRA) from Trypanosoma brucei rhodesiense, recombinant SRA (SEQ ID NO: … (Trypanosoma brucei rhodesiense, UniProt O96637 31-274))
T1 construct: also called SRA protein
T1 sequence: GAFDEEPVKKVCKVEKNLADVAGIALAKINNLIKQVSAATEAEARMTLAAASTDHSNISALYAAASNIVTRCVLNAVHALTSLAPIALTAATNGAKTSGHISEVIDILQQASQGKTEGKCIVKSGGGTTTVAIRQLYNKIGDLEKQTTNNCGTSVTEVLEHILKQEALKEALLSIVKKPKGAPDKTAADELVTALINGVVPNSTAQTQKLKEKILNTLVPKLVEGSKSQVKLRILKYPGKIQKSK

T2: SRA.mmh
T2 construct: also called SRA.mmh (CHO)
T2 antigen: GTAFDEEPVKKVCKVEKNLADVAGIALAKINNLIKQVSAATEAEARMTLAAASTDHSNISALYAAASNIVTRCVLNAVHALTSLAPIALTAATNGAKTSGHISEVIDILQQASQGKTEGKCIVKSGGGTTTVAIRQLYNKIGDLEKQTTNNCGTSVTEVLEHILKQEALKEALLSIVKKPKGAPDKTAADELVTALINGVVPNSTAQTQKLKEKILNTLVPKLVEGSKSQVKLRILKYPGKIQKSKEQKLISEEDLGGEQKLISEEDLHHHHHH

B1: H1H10056P (antibody, V domains shown)
VH: QVQLVESGGGVVQPGRSLRLSCSASGFTFSLYGMHWIRQAPGKGLEWVAVISYDGSNTYYGDSVKGRFTISRDNSKNTLYLQMNSLRTEDTAIYYCAKVYNWNYLFDYWGQGTLVTVSS
VL: EIVLTQSPDTLSLSPGERATLSCRASQNVNNNFLAWYQQKPGQAPRLLIYGASSRATDIPERFSGSGSGTDFTLTISRLEPEDFAVYYCLHYVNSRTFGQGTKVEIK
notes: Fully human antibody with human IgG1 Fc (prefix H1H)
B2: H1H10064P (antibody, V domains shown)
VH: QVQLVQSGAEVKKPGSSVKVSCKASGGSFSSNVFSWVRQAPGQGLEWMGGIIPIFGSANYAQKFQGRVTITTDESTTTAYMELSSLRSEDTAVYYCAIGGTGPSGYNWNYGAFYIWGQGTMVTVSS
VL: DIQMTQSPSSLSASVGDRVTITCRASQGIRNDLGWYQQKPGIAPKRLIYAASSLQSGVPSRFSGSGSGTEFTLTISSLQPEDFATYYCLQHNSYPYTFGQGTKLEIK
notes: as for B1
B3: H1H10031P (antibody, V domains shown)
VH: EVQLVESGGNVVRPGGSLRLSCSGSGFAFENYGMSWVRQGPGKGLEWVSNINWNGGSLNYVDSVKGRFTISRDNAKNSLYLQMNSLRAEDTALYYCARVIVYGMDVWGQGTTVTVSS
VL: DIQMTQSPSSLSASVGDRVTITCRASQGIRNGLGWFQQKPGKAPKRLIYATSSLQSGVPSRFSGSGSGTEFTLTISSLQPEDFATYYCLQSNSYPWTFGQGTKVEIK
notes: as for B1
B4: H2aM10201N (antibody, V domains shown)
VH: QVQLLESGGGVVQPGKSLRLSCVASGSIFSIYGMNWVRQAPGKGLEWVASVSSDGSAKFYADSVKGRFTISRDNSNDTLFLQMTSLRAEDTAVYYCAKTLWNYLFDSWGQGTLVTVSS
VL: ENVLTQSPDTLSLSPGERATLSCRASQSITSNYLAWYQQKPGQTPRLLISFTSRRATGIPDRFSGSGSGTVFTLTISRLEPEDFAVYYCQQYGTSLTFGGGAKVEIR
notes: Chimeric antibody, human variable domains and mouse constant domains (mouse Fc, prefix H2aM); also called H2M10201N
B5: H1H10045P (antibody, V domains shown)
VH: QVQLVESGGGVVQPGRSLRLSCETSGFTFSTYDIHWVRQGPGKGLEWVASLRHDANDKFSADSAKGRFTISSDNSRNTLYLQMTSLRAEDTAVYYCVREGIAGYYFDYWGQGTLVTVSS
VL: DIQMTQSPSFVSASVGDRVTISCRASQDIHTWLAWYQQKPGKAPNLLIYAASGLHSRAPSRFSGSGSGTDFTLTISSLQPEDFATYYCQKADRFPFTFGPGTKVDIK
notes: as for B1

Columns and labels:
[1] = biological target: T1, serum resistance-associated protein …; test: SPR, mAb captured, pH 4.5, 25C; competitor biotin-apoL1 peptide
[2] = biological target: T1, serum resistance-associated protein …; test: SPR, mAb captured, 50 nM SRA, pH 4.5, 25C
[3] = biological target: T2, SRA.mmh; test: Octet, SRA.mmh captured on anti-Penta-His tips, mAb-1 at 50 ug/mL for 5 min, 25 C, pH 7.4
[4] = biological target: T1, serum resistance-associated protein …; test: SPR, mAb captured, 25C, pH 7.4
Procedure: (§1) Equilibrium dissociation constants (KD) values for SRA binding to selected purified anti-SRA monoclonal antibodies were determined using a real-time surface plasmon resonance biosensor assay on a Biacore T200 instrument. […] SRA binding to the captured monoclonal antibodies was monitored for 4 min while the dissociation of mAb bound SRA was monitored for 7 min. Two different assays formats were adopted to characterize kinetics of SRA binding—(i) regular kinetics and (ii) pH4.5 chase. Regular kinetics experiments were performed using pH7.4 buffer as the running buffer and both the association and dissociation was performed in pH7.4. For the chase format, association and dissociation were performed in pH7.4 buffer and pH4.5 buffer respectively.
(§2) Kinetic association (kₐ) and dissociation (kd) rate constants were determined by processing and fitting the data to a 1:1 binding model using Scrubber 2.0c curve fitting software. Only the dissociation rate (kd) was calculated for the pH4.5 chase experiment. Binding dissociation equilibrium constants (KD) and dissociative half-lives (t½) were calculated from the kinetic rate constants as:

[5] = biological target: T1, serum resistance-associated protein …; test: SPR, mAb captured, pH 4.5, 25C; competitor biotin-mutant apoL1 peptide
[6] = biological target: T1, serum resistance-associated protein …; test: SPR, mAb captured, 25C, assoc. pH 7.4, dissoc. pH 4.5
Procedure: as §1, §2

[7] = biological target: T2, SRA.mmh; test: Octet, mAb-2 at 50 ug/mL on captured SRA.mmh after negative control α-PRLR H1H6800P as mAb-1 (row 32 (-))
[8] = biological target: T1, serum resistance-associated protein …; test: SPR, 25C, t1/2 pH 7.4 over pH 4.5
Procedure: as §1, §2

Row | Binder | 50 nM SRA + 5 uM apoL1 peptide binding (RU) [1] [RU] | % Blocking, apoL1 peptide [1] [%] | 50 nM SRA binding (RU) [2] [RU] | 50 ug/mL mAb 1 Bound (nm) [3] [nm] | Kd [4] [nM] | kon [4] [M⁻¹ s⁻¹] | t ½ [4] [min] | 50 nM SRA + 5 uM mutant apoL1 peptide binding (RU) [5] [RU] | % Blocking, Mutant apoL1 peptide [5] [%] | t ½ [6] [min] | Binding of mAb-2 to SRA Pre-complexed with mAb-1 [7] | t ½ ratio pH 7.4/pH 4.5 [8]
1 | B1 | -4 | 100 | 72 | 1.3 | ≤ 0.134 | 372000 | ≥ 231 | 67 | 7 | 7 | 1.28 | ≥ 31
2 | B2 | -11 | 100 | 76 | 1.25 | 0.546 | 1.6e+06 | 13 | 67 | 11 | 1.5 | 1.22 | 9
3 | B3 | 45 | 25 | 60 | 1.59 | ≤ 0.095 | 526000 | ≥ 231 | 57 | 6 | 199 | 1.58 | ≥ 1
4 | B4 | 42 | 61 | 109 | 1.27 | 0.245 | 642000 | 74 | 108 | 0 | 0.7 | 1.31 | 109
5 | B5 | 52 | 36 | 82 | 1.72 | ≤ 0.108 | 459000 | ≥ 231 | 77 | 6 | ≥ 231 | 1.4 | 

— patent publication US20150376269A1 (Regeneron, published 2015)
